{"source": "patent US20110207796", "proteins": {"B1": {"name": "GRK4 (protein)", "chain": "MELENIVANSLLLKARQGGYGKKSGRSKKWKEILTLPPVSQCSELRHSIEKDYSSLCDKQPIGRRLFRQFCDTKPTLKRHIEFLDAVAEYEVADDEDRSDCGLSILDRFFNDKLAAPLPEIPPDVVTECRLGLKEENPSKKAFEECTRVAHNYLRGEPFEEYQESSYFSQFLQWKWLERQPVTKNTFRHYRVLGKGGFGEVCACQVRATGKMYACKKLQKKRIKKRKGEAMALNEKRILEKVQSRFVVSLAYAYETKDALCLVLTIMNGGDLKFHIYNLGNPGFDEQRAVFYAAELCCGLEDLQRERIVYRDLKPENILLDDRGHIRISDLGLATEIPEGQRVRGRVGTVGYMAPEVVNNEKYTFSPDWWGLGCLIYEMIQGHSPFKKYKEKVKWEEVDQRIKNDTEEYSEKFSEDAKSICRMLLTKNPSKRLGCRGEGAAGVKQHPVFKDINFRRLEANMLEPPFCPDPHAVYCKDVLDIEQFSVVKGIYLDTADEDFYARFATGCVSIPWQNEMIESGCFKDINKSESEEALPLDLDKNIHTPVSRPNRGFFYRLFRRGGCLTMVPSEKEVEPKQC"}, "B2": {"name": "adrenergic, beta, receptor kinase 1 (GRK2; BARK1) (protein)", "chain": "MADLEAVLADVSYLMAMEKSKATPAARASKKILLPEPSIRSVMQKYLEDRGEVTFEKIFSQKLGYLLFRDFCLNHLEEARPLVEFYEEIKKYEKLETEEERVARSREIFDSYIMKELLACSHPFSKSATEHVQGHLGKKQVPPDLFQPYIEEICQNLRGDVFQKFIESDKFTRFCQWKNVELNIHLTMNDFSVHRIIGRGGFGEVYGCRKADTGKMYAMKCLDKKRIKMKQGETLALNERIMLSLVSTGDCPFIVCMSYAFHTPDKLSFILDLMNGGDLHYHLSQHGVFSEADMRFYAAEIILGLEHMHNRFVVYRDLKPANILLDEHGHVRISDLGLACDFSKKKPHASVGTHGYMAPEVLQKGVAYDSSADWFSLGCMLFKLLRGHSPFRQHKTKDKHEIDRMTLTMAVELPDSFSPELRSLLEGLLQRDVNRRLGCLGRGAQEVKESPFFRSLDWQMVFLQKYPPPLIPPRGEVNAADAFDIGSFDEEDTKGIKLLDSDQELYRNFPLTISERWQQEVAETVFDTINAETDRLEARKKAKNKQLGHEEDYALGKDCIMHGYMSKMGNPFLTQWQRRYFYLFPNRLEWRGEGEAPQSLLTMEEIQSVEETQIKERKCLLLKIRGGKQFILQCDSDPELVQWKKELRDAYREAQQLVQRVPKMKNKPRSPVVELSKVPLVQRGSANGL"}, "B3": {"name": "PLK4 (protein)", "chain": "MATCIGEKIEDFKVGNLLGKGSFAGVYRAESIHTGLEVAIKMIDKKAMYKAGMVQRVQNEVKIHCQLKHPSILELYNYFEDSNYVYLVLEMCHNGEMNRYLKNRVKPFSENEARHFMHQIITGMLYLHSHGILHRDLTLSNLLLTRNMNIKIADFGLATQLKMPHEKHYTLCGTPNYISPEIATRSAHGLESDVWSLGCMFYTLLIGRPPFDTDTVKNTLNKVVLADYEMPSFLSIEAKDLIHQLLRRNPADRLSLSSVLDHPFMSRNSSTKSKDLGTVEDSIDSGHATISTAITASSSTSISGSLFDKRRLLIGQPLPNKMTVFPKNKSSTDFSSSGDGNSFYTQWGNQETSNSGRGRVIQDAEERPHSRYLRRAYSSDRSGTSNSQSQAKTYTMERCHSAEMLSVSKRSGGGENEERYSPTDNNANIFNFFKEKTSSSSGSFERPDNNQALSNHLCPGKTPFPFADPTPQTETVQQWFGNLQINAHLRKTTEYDSISPNRDFQGHPDLQKDTSKNAWTDTKVKKNSDASDNAHSVKQQNTMKYMTALHSKPEIIQQECVFGSDPLSEQSKTRGMEPPWGYQNRTLRSITSPLVAHRLKPIRQKTKKAVVSILDSEEVCVELVKEYASQEYVKEVLQISSDGNTITIYYPNGGRGFPLADRPPSPTDNISRYSFDNLPEKYWRKYQYASRFVQLVRSKSPKITYFTRYAKCILMENSPGADFEVWFYDGVKIHKTEDFIQVIEKTGKSYTLKSESEVNSLKEEIKMYMDHANEGHRICLALESIISEEERKTRSAPFFPIIIGRKPGSTSSPKALSPPPSVDSNYPTRERASFNRMVMHSAASPTQAPILNPSMVTNEGLGLTTTASGTDISSNSLKDCLPKSAQLLKSVFVKNVGWATQLTSGAVWVQFNDGSQLVVQAGVSSISYTSPNGQTTRYGENEKLPDYIKQKLQCLSSILLMFSNPTPNFH"}, "B4": {"name": "PLK3 (protein)", "chain": "MEPAAGFLSPRPFQRAAAAPAPPAGPGPPPSALRGPELEMLAGLPTSDPGRLITDPRSGRTYLKGRLLGKGGFARCYEATDTETGSAYAVKVIPQSRVAKPHQREKILNEIELHRDLQHRHIVRFSHHFEDADNIYIFLELCSRKSLAHIWKARHTLLEPEVRYYLRQILSGLKYLHQRGILHRDLKLGNFFITENMELKVGDFGLAARLEPPEQRKKTICGTPNYVAPEVLLRQGHGPEADVWSLGCVMYTLLCGSPPFETADLKETYRCIKQVHYTLPASLSLPARQLLAAILRASPRDRPSIDQILRHDFFTKGYTPDRLPISSCVTVPDLTPPNPARSLFAKVTKSLFGRKKKSKNHAQERDEVSGLVSGLMRTSVGHQDARPEAPAASGPAPVSLVETAPEDSSPRGTLASSGDGFEEGLTVATVVESALCALRNCIAFMPPAEQNPAPLAQPEPLVWVSKWVDYSNKFGFGYQLSSRRVAVLFNDGTHMALSANRKTVHYNPTSTKHFSFSVGAVPRALQPQLGILRYFASYMEQHLMKGGDLPSVEEVEVPAPPLLLQWVKTDQALLMLFSDGTVQVNFYGDHTKLILSGWEPLLVTFVARNRSACTYLASHLRQLGCSPDLRQRLRYALRLLRDRSPA"}, "B5": {"name": "G protein-coupled receptor kinase 6 (protein)", "chain": "MELENIVANTVLLKAREGGGGNRKGKSKKWRQMLQFPHISQCEELRLSLERDYHSLCERQPIGRLLFREFCATRPELSRCVAFLDGVAEYEVTPDDKRKACGRQLTQNFLSHTGPDLIPEVPRQLVTNCTQRLEQGPCKDLFQELTRLTHEYLSVAPFADYLDSIYFNRFLQWKWLERQPVTKNTFRQYRVLGKGGFGEVCACQVRATGKMYACKKLEKKRIKKRKGEAMALNEKQILEKVNSRFVVSLAYAYETKDALCLVLTLMNGGDLKFHIYHMGQAGFPEARAVFYAAEICCGLEDLHRERIVYRDLKPENILLDDHGHIRISDLGLAVHVPEGQTIKGRVGTVGYMAPEVVKNERYTFSPDWWALGCLLYEMIAGQSPFQQRKKKIKREEVERLVKEVPEEYSERFSPQARSLCSQLLCKDPAERLGCRGGSAREVKEHPLFKKLNFKRLGAGMLEPPFKPDPQAIYCKDVLDIEQFSTVKGVELEPTDQDFYQKFATGSVPIPWQNEMVETECFQELNVFGLDGSVPPDLDWKGQPPAPPKKGLLQRLFSRQDCCGNCSDSEEELPTRL"}, "B6": {"name": "met proto-oncogene (hepatocyte growth factor receptor) (protein)", "chain": "KKRKQIKDLGSELVRYDARVHTPHLDRLVSARSVSPTTEMVSNESVDYRATFPEDQFPNSSQNGSCRQVQYPLTDMSPILTSGDSDISSPLLQNTVHIDLSALNPELVQAVQHVVIGPSSLIVHFNEVIGRGHFGCVYHGTLLDNDGKKIHCAVKSLNRITDIGEVSQFLTEGIIMKDFSHPNVLSLLGICLRSEGSPLVVLPYMKHGDLRNFIRNETHNPTVKDLIGFGLQVAKGMKYLASKKFVHRDLAARNCMLDEKFTVKVADFGLARDMYDKEYYSVHNKTGAKLPVKWMALESLQTQKFTTKSDVWSFGVLLWELMTRGAPPYPDVNTFDITVYLLQGRRLLQPEYCPDPLYEVMLKCWHPKAEMRPSFSELVSRISAIFSTFIGEHYVHVNATYVNVKCVAPYPSLLSSEDNADDEVDTRPASFWETS"}, "B7": {"name": "GRK7 (protein)", "chain": "MVDMGALDNLIANTAYLQARKPSDCDSKELQRRRRSLALPGLQGCAELRQKLSLNFHSLCEQQPIGRRLFRDFLATVPTFRKAATFLEDVQNWELAEEGPTKDSALQGLVATCASAPAPGNPQPFLSQAVATKCQAATTEEERVAAVTLAKAEAMAFLQEQPFKDFVTSAFYDKFLQWKLFEMQPVSDKYFTEFRVLGKGGFGEVCAVQVKNTGKMYACKKLDKKRLKKKGGEKMALLEKEILEKVSSPFIVSLAYAFESKTHLCLVMSLMNGGDLKFHIYNVGTRGLDMSRVIFYSAQIACGMLHLHELGIVYRDMKPENVLLDDLGNCRLSDLGLAVEMKGGKPITQRAGTNGYMAPEILMEKVSYSYPVDWFAMGCSIYEMVAGRTPFKDYKEKVSKEDLKQRTLQDEVKFQHDNFTEEAKDICRLFLAKKPEQRLGSREKSDDPRKHHFFKTINFPRLEAGLIEPPFVPDPSVVYAKDIAEIDDFSEVRGVEFDDKDKQFFKNFATGAVPIAWQEEIIETGLFEELNDPNRPTGCEEGNSSKSGVCLLL"}, "B8": {"name": "CDC7 cell division cycle 7-like 1 (protein)", "chain": "MEASLGIQMDEPMAFSPQRDRFQAEGSLKKNEQNFKLAGVKKDIEKLYEAVPQLSNVFKIEDKIGEGTFSSVYLATAQLQVGPEEKIALKHLIPTSHPIRIAAELQCLTVAGGQDNVMGVKYCFRKNDHVVIAMPYLEHESFLDILNSLSFQEVREYMLNLFKALKRIHQFGIVHRDVKPSNFLYNRRLKKYALVDFGLAQGTHDTKIELLKFVQSEAQQERCSQNKSHIITGNKIPLSGPVPKELDQQSTTKASVKRPYTNAQIQIKQGKDGKEGSVGLSVQRSVFGERNFNIHSSISHESPAVKLMKQSKTVDVLSRKLATKKKAISTKVMNSAVMRKTASSCPASLTCDCYATDKVCSICLSRRQQVAPRAGTPGFRAPEVLTKCPNQTTAIDMWSAGVIFLSLLSGRYPFYKASDDLTALAQIMTIRGSRETIQAAKTFGKSILCSKEVPAQDLRKLCERLRGMDSSTPKLTSDIQGHASHQPAISEKTDHKASCLVQTPPGQYSGNSFKKGDSNSCEHCFDEYNTNLEGWNEVPDEAYDLLDKLLDLNPASRITAEEALLHPFFKDMSL"}}, "target": "human alpha-synuclein (wild-type, recombinant)"}
{"protein": "B1", "values": [{"measurement": "S129 phosphorylation, immunoblot (mAb 11A5), rank of signal", "value": "CKI>GRK6>PLK2>GRK4>GRK5>GRK2"}]}
{"protein": "B2", "values": [{"measurement": "S129 phosphorylation, immunoblot (mAb 11A5), rank of signal", "value": "CKI>GRK6>PLK2>GRK4>GRK5>GRK2"}, {"measurement": "in vitro kinase reaction, phosphorylation of alpha-synuclein at serine 129", "value": "capable of phosphorylating alpha-synuclein specifically at serine 129 and did not phosphorylate serine 87 in vitro"}]}
{"protein": "B3", "values": [{"measurement": "Fold Change in Percent Synuclein Phosphorylation (ELISA, HEK-293 overexpression)", "value": 1, "unit": "fold"}, {"measurement": "Proportion of total synuclein that is phoshorylated at ser-129 (ELISA, HEK-293 overexpression)", "value": 1.9, "unit": "%"}, {"measurement": "in vitro biochemical assay, phosphorylation of synuclein", "value": "PLK4 exhibiting no ability to phosphorylate synuclein"}]}
{"protein": "B4", "values": [{"measurement": "Fold Change in Percent Synuclein Phosphorylation (ELISA, HEK-293 overexpression)", "value": 39.6, "unit": "fold"}, {"measurement": "Proportion of total synuclein that is phoshorylated at ser-129 (ELISA, HEK-293 overexpression)", "value": 79.2, "unit": "%"}, {"measurement": "in vitro biochemical assay, phosphorylation of synuclein", "value": "PLK2 and PLK3 having extremely robust phosphorylation of synuclein"}]}
{"protein": "B5", "values": [{"measurement": "S129 phosphorylation in vitro, kinases normalized by activity units", "value": "The most prominent result came from GRK6"}, {"measurement": "S129 phosphorylation, immunoblot (mAb 11A5), kinase:rAS 1:200 molar", "value": "Prominent signals came from GRK6, CKI, CKII and PLK2"}, {"measurement": "S129 phosphorylation, immunoblot (mAb 11A5), rank of signal", "value": "CKI>GRK6>PLK2>GRK4>GRK5>GRK2"}, {"measurement": "in vitro kinase reaction, phosphorylation of alpha-synuclein at serine 129", "value": "capable of phosphorylating alpha-synuclein specifically at serine 129 and did not phosphorylate serine 87 in vitro"}, {"measurement": "phospho ser-129 in vitro, kinases normalized for molarity", "value": "roughly equivalent levels of phospho ser-129 between CKI, GRK6 and PLK2"}]}
{"protein": "B6", "values": [{"measurement": "in vitro kinase reaction, phosphorylation of alpha-synuclein", "value": "shown to be incapable of directly phosphorylating alpha-synuclein"}]}
{"protein": "B7", "values": [{"measurement": "S129 phosphorylation, immunoblot (mAb 11A5)", "value": "Prominent signals came from all GRKs except for GRK7"}, {"measurement": "in vitro kinase reaction, phosphorylation of alpha-synuclein at serine 129", "value": "capable of phosphorylating alpha-synuclein specifically at serine 129 and did not phosphorylate serine 87 in vitro"}, {"measurement": "phosphorylation of alpha-synuclein in vitro", "value": "GRK 7 was not able to phosphorylate at appreciable levels"}]}
{"protein": "B8", "values": [{"measurement": "in vitro kinase reaction, phosphorylation of alpha-synuclein", "value": "shown to be incapable of directly phosphorylating alpha-synuclein"}]}
